Test results reported in US20140248295A1 (ROCKEFELLER UNIVERSITY, published 2014).
Numbering of substitutions follows the chain as printed.

B1: Ibalizumab light chain mutant LM30E (antibody, human IgG1, kappa, V domains shown)
VH: QVQLQQSGPEVVKPGASVKMSCKASGYTFTSYVIHWVRQKPGQGLDWIGYINPYNDGTDYDEKFKGKATLTSDTSTSTAYMELSSLRSEDTAVYYCAREKDNYATGAWFAYWGQGTLVTVSS
VL: DIVMTQSPDSLAVSLGERVTMNCKSSQSLLYSTNNATYLAWYQQKPGQSPKLLIYWASTRESGVPDRFSGSGSGTDFTLTISSVQAEDVAVYYCQQYYSYRTFGGGTKLEIKR
B2: Ibalizumab light chain mutant LM52 (antibody, human IgG1, kappa, V domains shown)
VH: B1 VH
VL: B1 VL with N35Q, A36K, T37N, S58N, T59S, R60T
notes: also called iMab-LM52; Ibalizumab LM52
B3: Ibalizumab light chain mutant LM53 (antibody, human IgG1, kappa, V domains shown)
VH: B1 VH
VL: B1 VL with N35Q, A36K, T37N, T59N, R60A, E61T
B4: Ibalizumab light chain mutant LM60 (antibody, human IgG1, kappa, V domains shown)
VH: B1 VH
VL: B1 VL with N35Q, A36K, T37N, D66N, R67A, F68T
B5: Ibalizumab light chain mutant LM65 (antibody, human IgG1, kappa, V domains shown)
VH: B1 VH
VL: B1 VL with N35Q, A36K, T37N, S71N, G72A, S73T
B6: Ibalizumab light chain mutant LM67 (antibody, human IgG1, kappa, V domains shown)
VH: B1 VH
VL: B1 VL with N35Q, A36K, T37N, S73N, G74A
B7: Ibalizumab light chain mutant LM76 (antibody, human IgG1, kappa, V domains shown)
VH: B1 VH
VL: B1 VL with N35Q, A36K, T37N, S82N, S83A, V84T

Target: T1, Recombinant sCD4 comprising the full-length extracellular domain of human CD4 (human, UniProt P01730 26-396)
T1 construct: also called human sCD4 protein; CD4 protein
Assay: SPR (Biacore), antibody on CM5 chip by amine coupling, sCD4 as analyte, 25 C
Experimental: Binding affinity analyses were performed with a T3000 instrument (GE Healthcare, Piscataway, N.J.). […] Briefly, carboxyl groups on the sensor chip surface were activated by injection of a solution containing 0.2 M EDC and 0.05 M NHS. Next, sCD4 protein in 10 mM NaOAc buffer (pH5) was flowed over the chip surface until the desired level of response units was achieved. After unreacted protein was washed out, excess active ester groups on the sensor surface were capped by the injection of 1 M ethanolamine, pH 8.0. Binding experiments were performed at 25° C. in HBS-EP buffer (GE Healthcare). Binding kinetics were measured by passing various concentrations of human sCD4 protein over the chip surface. For kinetics data analysis, the kinetic parameters ([…], association rate constant; koff, dissociation rate constant; KD, equilibrium dissociation constant) were determined by collectively fitting the overlaid sensograms using the BIAevaluation 4.1 software.
CD4 binding affinities of these mutant antibodies were examined using surface plasmon resonance.

Binder | Kd [pM]
B1 | 1300
B2 | 350
B3 | 530
B4 | 190
B5 | 1500
B6 | 800
B7 | 280
